Measured values taken from PMC9576616, “Synthesis, preclinical evaluation and radiation dosimetry of a dual targeting PET tracer [^68Ga]Ga-FAPI-RGD” (Theranostics, 2022).
Where two headings read alike, the source gives them in different places.

Experiments:
[1] = test system: primary tumors and metastases; assay: Comparison of [^68Ga]Ga-FAPI-RGD and 2-[^18F]FDG PET/CT tumor uptake in patients
Description: (§1) All patients underwent [^68Ga]Ga-FAPI-RGD PET/CT and 2-[^18F]FDG PET scanning using a dedicated PET/CT scanner (Biograph mCT64, Siemens Healthcare).
(§2) [^68Ga]Ga-FAPI-RGD PET/CT The CT scans were performed with a tube voltage of 120 kV, an effective tube current of 70-120 mA (Care Dose 4D), and a slice thickness of 3 mm. Serial whole-body dynamic PET scans were immediately performed after the CT scan in 3D acquisition mode (matrix: 200 × 200). The whole body (from the top of skull to the middle of femur) of each patient was covered by 6 bed positions. The acquisition duration was 30 s/bed position at 3 min after injection; 1 min/bed position at 15 min after injection; and 2 min/bed position at 30, 60, and 120 min after injection.
(§3) 2-[^18F]FDG PET/CT All patients were fast at least 6 h to keep and images were obtained at 60-80 min after the intravenous injection of 2-[^18F]FDG (3.70 MBq [0.10 mCi]/kg). 2-[^18F]FDG was purchased from Fuzhou PET-Tracer Co. Ltd, and the radiochemical purity was more than 95%.
(§4) For [^68Ga]Ga-FAPI-RGD PET/CT, only PET/CT datasets acquired approximately 1 h after injection were used for analysis.

[2] = assay type: physicochemical
Description: Radiolabeling of ^68Ga was performed by incubation with 50 μg FAPI-RGD in NaOAc buffer solution (pH = 4.5) at 95 ℃ for 10 min. The product was purified by C18 column extraction. The radiochemical purity and stability of [^68Ga]Ga-FAPI-RGD were determined by radio-HPLC.
FAPI-RGD and its intermediate products were characterized by TOF-MS and HPLC (Figure S1-9). The radiolabeling yield and radiochemical purity of [^68Ga]Ga-FAPI-RGD were consistently over 99%. […] The radiochemistry purity was over 99% within 4 h.

[3] = MicroPET imaging in Panc02 tumor-bearing mice; set-up: species or system C57BL/6 mice; conditions: C57BL/6, mouse, in vivo, iv, 7.4 MBq, total radioactivity; for tissue uptake at 0.5 h: 0.5 h p.i.; for tissue uptake at 1 h: 1 h p.i.; for tissue uptake at 2 h: 2 h p.i.; for tissue uptake at 4 h: 4 h p.i.
Description: All animal studies were approved by the Animal Care and Use Committee of Xiamen University and carried out in compliance with the national laws related to the conduct of animal experiments. Panc02 tumor model was generated by subcutaneous injection of 5 × 10^6 tumor cells suspended in 100 μL PBS, into the upper limb flank of C57BL/6 mice (Beijing Vital River Laboratory Animal Technology Co., Ltd.). The tumor mice were subjected to microPET and biodistributions studies when the tumor volume reached 200-300 mm^3.
PET scans were performed by using Inveon small-animal PET scanner (Siemens Preclinical Solution). About 7.4 MBq of [^68Ga]Ga-FAPI-RGD was given to Panc02 tumor xenografted mice through tail vein injection for the 10-min static PET imaging. At 0.5, 1, 2 and 4 h post-injection (p.i.), mice were anaesthetized and placed on imaging chamber of PET/CT scanner for image acquisition. […] The blocking study was performed by injecting unlabeled c(RGDfK), FAPI-02, or RGDfK+FAPI-02, before administering [^68Ga]Ga-FAPI-RGD. PET images were reconstructed using three-dimensional ordered-subset expectation-maximization (3D OSEM) algorithm and with a Maximum a Posteriori (MAP) method and analyzed through drawing regions of interest (ROIs).

[4] = in vivo; set-up: species or system C57BL/6 mice; conditions: C57BL/6, mouse, iv, 740 kBq, total radioactivity
Description: All animal studies were approved by the Animal Care and Use Committee of Xiamen University and carried out in compliance with the national laws related to the conduct of animal experiments. […] Tissue and organs of interest were collected, wet weighted and activity measured by a γ-counter. […] The results were calculated as percentage of injected dose per gram (%ID/g).

[5] = clinical; conditions: human, in vivo, total radioactivity
Description: (§5) This study was approved by the institutional review board of the First Affiliated Hospital, Fujian Medical University and registered at ClinicalTrials.gov (NCT05515783). All patients signed an informed consent form before participation and all procedures were conducted in accordance with the Declaration of Helsinki. The inclusion criteria were as follows: […] (2) primary malignancies confirmed by pathology. The exclusion criteria were patients: (1) who suffered from severe hepatic and renal insufficiency; (2) pregnant or lactational women.

[6] = test system: malignant tumors and normal organs; assay: clinical; conditions: human, in vivo
Description: as §5

[7] = human, in vivo
Description: Organ delineation and activity accumulation at each imaging time point was determined using Hybrid-Dosimetry software (Hermes Medical Solutions, Sweden). Time-activity curve fitting and subsequent dose calculation was performed using OLINDA/EXM, version 2.2.0. Kidneys, liver, spleen, urinary bladder content, L2-L4 lumbar vertebrae for red marrow dosimetry, heart content, lung, brain, pancreas, thyroid, salivary glands and stomach contents were included as source organs. Red bone marrow dosimetry was done by image-based 3D volumetric analysis of L2-L4 vertebrae, which is considered to constitute 6.7% of the total bone marrow. The ROIs for the above organs were drawn from the examination that had the best organ delineation and then were copied onto all other time points to calculate the time-activity curves. The mono- or bi-exponential curve fitting parameters were applied to derive the best curve fit for the residence time of activity in the source organ. Once all the organ residence times were derived from the kinetic input model, they were entered in the adult female or male model data to derive the absorbed doses to all the organs, including the whole-body effective dose, and generated in mSv/MBq and rem/mCi. The time-activity graphs of various organs were generated using GraphPad Prism software.

[8] = clinical; conditions: human, in vivo, total radioactivity; remark: listed apart in the source
Description: as §1, §2, §3, §4

[9] = test system: Panc02 tumor cells; assay: Cellular uptake assay on Panc02 tumor cells; assay type: cell-based; conditions: 37 kBq, 37 °C, 10, 30, 60, 90 and 120 min, n = 4
Description: Panc02 cell line was purchased from the American Type Culture Collection (ATCC), and cultured in Dulbecco modified Eagle medium (DMEM) containing 10% (v/v) fetal bovine serum (FBS) at 37 °C with 5% CO2. Panc02 cells were seeded in 24-well plates with 2 × 10^5 cells per well. […] Then, the medium was removed and the cells were washed twice with cold PBS (pH 7.4) and subsequently lysed with 0.5 mL of NaOH (1 M). In the blocking studies, excess amount of unlabeled FAPI-RGD, FAPI-02, RGDfK, FAPI-02+RGDfK (10 μg/well) were added as inhibitors into the cells along with [^68Ga]Ga-FAPI-RGD. After 1 h, the cells were treated in the same way. Cell lysates was collected and the radioactivity was determined using a γ counter.

[10] = i.v. tail vein, n = 3, ROI, mean ± SD
[11] = average SUVmean of thyroid glands

With `OC[C@H]1O[C@@H](O)[C@H]([18F])[C@@H](O)[C@@H]1O` [2-[^18F]FDG, reference compound] the “mean SUVmax in primary tumors” value ([1]; 6 patients, FAPI-RGD approximately 1 h after injection, FDG 60-80 min after injection, mean ± SD, p = 0.459) was 10.3 ± 6.9, the “SUVmax of primary lesion, patient with renal cell carcinoma” value ([1]; single patient, intra-individual comparison) was 2.7 and the SUVmax of metastasis ([1]; three patients with metastatic foci, mean ± SD, p = 0.373) was 7.6 ± 5.3.

In the case of `N#C[C@@H]1CCCN1C(=O)CNC(=O)c1ccnc2ccc(OCCCN3CCN(C(=O)CCOCCOCCNC(=O)[C@H](CCC(=O)NCCOCCOCCC(=O)NCCCC[C@@H]4NC(=O)[C@@H](Cc5ccccc5)NC(=O)[C@H](CC(=O)O)NC(=O)CNC(=O)[C@H](CCCNC(=N)N)NC4=O)NC(=O)CN4CCN(CC(=O)O)CCN(CC(=O)O)CC4)CC3)cc12` [[^68Ga]Ga-FAPI-RGD, metal not drawn], the “time of good stability in saline” value [2] is reported as “at least 4 h”, the tissue uptake at 0.5 h [3, 10] is reported as 5.25 ± 0.54 %ID/g and the tissue uptake at 1 h [3, 10] is reported as 5.13 ± 0.65 %ID/g. For the same compound, the tissue uptake at 2 h [3, 10] was 5.33 ± 0.27 %ID/g, the tissue uptake at 4 h ([3]; i.v. tail vein, n = 3, ROI, mean ± SD, read-out: tumor uptake (microPET)) was 5.04 ± 0.16 %ID/g and the tissue uptake at 4 h ([3]; n = 3, read-out: blood uptake (microPET)) was 1.4 ± 0.08 %ID/g. The tissue uptake at 4 h ([3]; n = 3, read-out: kidney uptake (microPET)) was 2.78 ± 0.46 %ID/g, the tissue uptake at 4 h ([3]; n = 3, read-out: liver uptake (microPET)) was 1.83 ± 0.39 %ID/g and the tissue uptake at 0.5 h [4] was 6.16 ± 0.46 %ID/g. For the same compound, the tissue uptake at 1 h [4] was 5.95 ± 0.43 %ID/g, the tissue uptake at 2 h [4] was 5.78 ± 0.28 %ID/g and the tissue uptake at 4 h [4] was 5.79 ± 0.22 %ID/g. For the same compound, the SUV at 0.05 h [5, 11] was 7.8 SUV, the SUV at 2 h [5, 11] was 3 SUV and the SUV at 0.05 h ([5]; average tumor SUVmax) was 7 SUV. For the same compound, the SUV at 0.25 h ([5]; average tumor SUVmax) was 8 SUV, the SUV at 0.5 h ([5]; average tumor SUVmax) was 8 SUV and the SUV at 1 h ([5]; average tumor SUVmax) was 8.3 SUV. For the same compound, the SUV at 2 h ([5]; average tumor SUVmax) was 9.1 SUV, the “decline of thyroid SUVmean from 3 min to 2.0 h” value [6] was 62.5% and the main excretory organs [6] was “kidneys were the main excretory organs”. For the same compound, the effective dose [7] was 1.94 mSv/100 MBq, the “total body effective dose for administration of 185 MBq (5.0 mCi)” value [7] was 3.6 mSv and the “Estimated absorbed dose, Adrenals” value ([7]; iv) was 1.04E-02 mSv/MBq. For the same compound, the “Estimated absorbed dose, Brain” value ([7]; iv) was 3.38E-03 mSv/MBq, the “Estimated absorbed dose, Esophagus” value ([7]; iv) was 7.55E-03 mSv/MBq and the “Estimated absorbed dose, Eyes” value ([7]; iv) was 5.47E-03 mSv/MBq. The “Estimated absorbed dose, Gallbladder Wall” value ([7]; iv) was 8.35E-03 mSv/MBq, the “Estimated absorbed dose, Heart Wall” value ([7]; iv) was 2.04E-02 mSv/MBq and the “Estimated absorbed dose, Kidneys” value ([7]; iv) was 3.24E-02 mSv/MBq. The “Estimated absorbed dose, Left colon” value ([7]; iv) was 7.80E-03 mSv/MBq, the “Estimated absorbed dose, Liver” value ([7]; iv) was 1.45E-02 mSv/MBq and the “Estimated absorbed dose, Lungs” value ([7]; iv) was 2.33E-02 mSv/MBq. The “Estimated absorbed dose, Osteogenic Cells” value ([7]; iv) was 1.07E-02 mSv/MBq, the “Estimated absorbed dose, Pancreas” value ([7]; iv) was 3.06E-02 mSv/MBq and the “Estimated absorbed dose, Prostate” value ([7]; iv) was 1.24E-02 mSv/MBq. The “Estimated absorbed dose, Rectum” value ([7]; iv) was 1.06E-02 mSv/MBq, the “Estimated absorbed dose, Red Marrow” value ([7]; iv) was 1.45E-02 mSv/MBq and the “Estimated absorbed dose, Right colon” value ([7]; iv) was 7.53E-03 mSv/MBq. For the same compound, the “Estimated absorbed dose, Salivary Glands” value ([7]; iv) was 2.09E-02 mSv/MBq, the “Estimated absorbed dose, Small Intestine” value ([7]; iv) was 8.16E-03 mSv/MBq and the “Estimated absorbed dose, Spleen” value ([7]; iv) was 2.25E-02 mSv/MBq. The “Estimated absorbed dose, Stomach Wall” value ([7]; iv) was 1.20E-02 mSv/MBq, the “Estimated absorbed dose, Testes” value ([7]; iv) was 7.13E-03 mSv/MBq and the “Estimated absorbed dose, Thymus” value ([7]; iv) was 7.41E-03 mSv/MBq. For the same compound, the “Estimated absorbed dose, Thyroid” value ([7]; iv) was 3.31E-02 mSv/MBq, the “Estimated absorbed dose, Total Body” value ([7]; iv) was 8.92E-03 mSv/MBq and the “Estimated absorbed dose, Urinary Bladder Wall” value ([7]; iv) was 2.26E-01 mSv/MBq. For the same compound, the “effective dose” value ([7]; iv) was 1.94E-02 mSv/MBq, the SUV at 1 h ([8]; SUVmax of metastasis) was 6.5 ± 2.6 SUV and the SUV at 1 h ([8]; SUVmax of primary lesion, patient with renal cell carcinoma) was 5.1 SUV. It also gave an SUV at 1 h ([8]; mean SUVmax in primary tumors) of 8.9 ± 3.2 SUV.

For `N=C(N)NCCC[C@@H]1NC(=O)[C@H](CCCCNC(=O)CN2CCN(CC(=O)O)CCN(CC(=O)O)CC2)NC(=O)[C@@H](Cc2ccccc2)NC(=O)[C@H](CC(=O)O)NC(=O)CNC1=O` [[^68Ga]Ga-RGDfK, metal not drawn, reference compound], the “cellular uptake compared with [^68Ga]Ga-FAPI-RGD” value [9] was “less than [^68Ga]Ga-FAPI-RGD at all the time points”, the tissue uptake at 0.5 h [3, 10] was 3.96 ± 0.24 %ID/g and the tissue uptake at 1 h [3, 10] was 3.4 ± 0.16 %ID/g. The tissue uptake at 2 h [3, 10] was 2.89 ± 0.09 %ID/g and the tissue uptake at 1 h [4] was 3.51 ± 0.47 %ID/g.
